# B1: HDV Ribozyme (parent)
# chain: GGCCGGCAUGGUCCCAGCCUCCUCGCUGGCGCCGGCUGGGCAACAUUCCGAGGGGACCGUCCCCUCGGUAAUGGCGAAUGGGACCCA
# Variants of: B1
# Assay: self-cleavage, relative activity (ratio to wild type); higher = more cleavage; co-transcriptional
row,Variant,self-cleavage
1,GGCCGGCAUGGUCCGAGCCUCCUCGCUGGCGCCGGCUGGGCAACAUUCCGAGGGGACCGUCCCCUCGGUAAUGGCGAAUGGGACACA [C15G C85A],0.748
2,GGCCGGCAUGGUCCGAGCCUCCUCGCUGGCGCCGGCUGGGCAACAUUACGAGGGGACCGUCCCCUCGGUAAUGGCGAAUGGGACCCA [C15G C48A],0.623
3,GGCCGGCAUGGUCCGAGCCUCCUCGCUGGCGCCGGCUGGGCAACAUUUCGAGGGGACCGUCCCCUCGGUAAUGGCGAAUGGGACCCA [C15G C48U],0.237
4,GGCCGGCAUGGUCCGAGCCUCCUCGCUGGUGCCGGCUGGGCAACAUUCCGAGGGGACCGUCCCCUCGGUAAUGGCGAAUGGGACCCA [C15G C30U],0.145
5,GGCCGGCAUGGUCCGAGCCUCCUCGCUGGAGCCGGCUGGGCAACAUUCCGAGGGGACCGUCCCCUCGGUAAUGGCGAAUGGGACCCA [C15G C30A],0.147
6,GGCCGGCAUGGUCCGAGCCUCCUCGCUGGCGCCGGCUGCGCAACAUUCCGAGGGGACCGUCCCCUCGGUAAUGGCGAAUGGGACCCA [C15G G39C],0.0723
7,GGCCGGCAUGGUCCGAGCCUCCUCGCUGGCGCCGGCUGAGCAACAUUCCGAGGGGACCGUCCCCUCGGUAAUGGCGAAUGGGACCCA [C15G G39A],0.341
8,GGCCGGCAUGGUCCGAGCCUCCUCGCUGGCGGCGGCUGGGCAACAUUCCGAGGGGACCGUCCCCUCGGUAAUGGCGAAUGGGACCCA [C15G C32G],0.145
9,GGCCGGCAUGGUCCGAGCCUCCUCGCUGGCGACGGCUGGGCAACAUUCCGAGGGGACCGUCCCCUCGGUAAUGGCGAAUGGGACCCA [C15G C32A],0.158
10,GGCCGGCAUGGUCCGAGCCUCCUCGCUGGCGCCGGCUGGGCAACAUUCCGAGGGGACCGUCCCGUCGGUAAUGGCGAAUGGGACCCA [C15G C64G],0.415
11,GGCCGGCAUGGUCCGAGCCUCCUCGCUGGCGCCGGCUGGGCAACAUUCCGAGGGGACCGUCCCAUCGGUAAUGGCGAAUGGGACCCA [C15G C64A],0.538
12,GGCCGGCAUGGUCCGAGCCUCCUCGCUGGCGCCGGAUGGGCAACAUUCCGAGGGGACCGUCCCCUCGGUAAUGGCGAAUGGGACCCA [C15G C36A],0.306
13,GGCCGGCAUGGUCCGAGCCUCCUCGCUGGCGCCGGGUGGGCAACAUUCCGAGGGGACCGUCCCCUCGGUAAUGGCGAAUGGGACCCA [C15G C36G],0
14,GGCCGGCAUGGUCCGAGCCUCCUCGCUGGCGCCGGCUGGGAAACAUUCCGAGGGGACCGUCCCCUCGGUAAUGGCGAAUGGGACCCA [C15G C41A],0.529
15,GGCCGGCAUGGUCCGAGCCUCCUCGCUGGCGCCGGCUGGGUAACAUUCCGAGGGGACCGUCCCCUCGGUAAUGGCGAAUGGGACCCA [C15G C41U],0.277
16,GGCCGGCAUGGUCCGAGCCUCCUCGCUGGCGCCGGCUGGGCAACAUUCCGAGGGGACCGUCCCCUGGGUAAUGGCGAAUGGGACCCA [C15G C66G],0.475
17,GGCCGGCAUGGUCCGAGCCUCCUCGCUGGCGCCGGCUGGGCAACAUUCCGAGGGGACCGUCCCCUAGGUAAUGGCGAAUGGGACCCA [C15G C66A],0.665
18,GGCCGGCAUGGUCCGAGCCUCCUCGCUGGCGCCGGCUGGGCAACAUUCCGAUGGGACCGUCCCCUCGGUAAUGGCGAAUGGGACCCA [C15G G52U],0.684
19,GGCCGGCAUGGUCCGAGCCUCCUCGCUGGCGCCGGCUGGGCAACAUUCCGAGGGGACCGUCCCCUCGGUAAUGGCGCAUGGGACCCA [C15G A77C],0.128
20,GGCCGGCAUGGUCCGAGCCUCCUCGCUGGCGCCGGCUGGGCAACAUUCCGAGGGGACCGUCCCCUCGGUAAUGGCGAAUGGGAUCCA [C15G C84U],0.302
21,GGCCGGCAUGGUCCGAGCCUCCUCGCUGGCGCCGGCUGGGCAACAUUCCGAGGGGACCGUCCCCUCGGUAAUGGCGAAUGGGAGCCA [C15G C84G],0.222
22,GGCCGGCAUGGUCCGAGCCUCCUCGCUGGCGCCGGCUGGGCAACAUUCCGAGGGGACCGUCCCCUCGGUAAUGGAGAAUGGGACCCA [C15G C75A],0

row,Variant,self-cleavage
1,GGCCGGCAUGGUCCGAGCCUCCUCGCUGGCGCCGGCUGGGCAACAUUCCGAGGGGACCGUCCCCUCGGUAAUGGGGAAUGGGACCCA [C15G C75G],0.192
2,GGCCGGCAUGGUCCGAGCCUCCUCGCUGGCUCCGGCUGGGCAACAUUCCGAGGGGACCGUCCCCUCGGUAAUGGCGAAUGGGACCCA [C15G G31U],0.135
3,GGCCGGCAUGGUCCGAGCCUCCUCGCUGGCCCCGGCUGGGCAACAUUCCGAGGGGACCGUCCCCUCGGUAAUGGCGAAUGGGACCCA [C15G G31C],0.178
4,GGCCGGCAUGGUCCGAGCCUCCUCGCUGGCGCCGGCUGGGCAACAUUCCGAGGGGACCGUCCACUCGGUAAUGGCGAAUGGGACCCA [C15G C63A],0.684
5,GGCCGGCAUGGUCCGAGCCUCCUCGCUGGCGCCGGCUGGGCAACAUUCCGAGGGGUCCGUCCCCUCGGUAAUGGCGAAUGGGACCCA [C15G A56U],0.914
6,GGCCGGCAUGGUCCGAGCCUCCUCGCUGGCGCCGGCUGGGCAACAUUCCGAGGGGACCGUCCCCUCGGUACUGGCGAAUGGGACCCA [C15G A71C],0.222
7,GGCCGGCAUGGUCCGAGCCUCCUCGCUGGCGCCGGCUGGGCAACAUUCCGAGGGGACCGUCCCCUCGGUAUUGGCGAAUGGGACCCA [C15G A71U],0.489
8,GGCCGGCAUGGUCCGAGCCUCCUCGCUGGCGCCGGCUGGGCAAAAUUCCGAGGGGACCGUCCCCUCGGUAAUGGCGAAUGGGACCCA [C15G C44A],0.237
9,GGCCGGCAUGGUCCGAGCCUCCUCGCUGGCGCCGGCUGGGCAAUAUUCCGAGGGGACCGUCCCCUCGGUAAUGGCGAAUGGGACCCA [C15G C44U],0.434
10,GGCCGGCAUGGUCCGAGCCUCCUCGCUGGCGCCGGCUCGGCAACAUUCCGAGGGGACCGUCCCCUCGGUAAUGGCGAAUGGGACCCA [C15G G38C],0.0639
11,GGCCGGCAUGGUCCGAGCCUCCUCGCUGGCGCCGGCUAGGCAACAUUCCGAGGGGACCGUCCCCUCGGUAAUGGCGAAUGGGACCCA [C15G G38A],0
12,GGCCGGCAUGGUCCGAGACUCCUCGCUGGCGCCGGCUGGGCAACAUUCCGAGGGGACCGUCCCCUCGGUAAUGGCGAAUGGGACCCA [C15G C18A],0.0997
13,GGCCGGCAUGGUCCGAGGCUCCUCGCUGGCGCCGGCUGGGCAACAUUCCGAGGGGACCGUCCCCUCGGUAAUGGCGAAUGGGACCCA [C15G C18G],0.0594
14,GGCCGGCAUGGUCCGAGUCUCCUCGCUGGCGCCGGCUGGGCAACAUUCCGAGGGGACCGUCCCCUCGGUAAUGGCGAAUGGGACCCA [C15G C18U],0.0852
15,GGCCGGCAUGGUCCGAGCCUCUUCGCUGGCGCCGGCUGGGCAACAUUCCGAGGGGACCGUCCCCUCGGUAAUGGCGAAUGGGACCCA [C15G C22U],0.222
16,GGCCGGCAUGGUCCGAGCCUCCUCGCUGGCGCCGGCUGGGCAACAUUCCGAGGGGACCGUCACCUCGGUAAUGGCGAAUGGGACCCA [C15G C62A],0.554
17,GGCCGGCAUGGUCCGAGCCUCCUCGCUGGCGCCGGCUGGGCAACAUUCCGAGGGGACCGUCGCCUCGGUAAUGGCGAAUGGGACCCA [C15G C62G],0.237
18,GGCCGGCAUGGUCCGAGCCUCCUCGCUGGCGCCGGCUGGGCAACAUUCCGAGGGGACCGUCCCCUCGGUUAUGGCGAAUGGGACCCA [C15G A70U],0.415
19,GGCCGGCAUGGUCCGAGCCUCCUCGCUGGCGCCAGCUGGGCAACAUUCCGAGGGGACCGUCCCCUCGGUAAUGGCGAAUGGGACCCA [C15G G34A],0.237
20,GGCCGGCAUGGUCCGAGCCUCCUCGGUGGCGCCGGCUGGGCAACAUUCCGAGGGGACCGUCCCCUCGGUAAUGGCGAAUGGGACCCA [C15G C26G],0.431
21,GGCCGGCAUGGUCCGAGCCUCCUCGUUGGCGCCGGCUGGGCAACAUUCCGAGGGGACCGUCCCCUCGGUAAUGGCGAAUGGGACCCA [C15G C26U],0.623
22,GGCCGGCAUGGUCCGAGCCUCCUCGAUGGCGCCGGCUGGGCAACAUUCCGAGGGGACCGUCCCCUCGGUAAUGGCGAAUGGGACCCA [C15G C26A],0.332

row,Variant,self-cleavage
1,GGCCGGCAUGGUCCGAGCCUCCUCGCUGGCGCCGGCUGGGCAACAUUCCGAGGGGACUGUCCCCUCGGUAAUGGCGAAUGGGACCCA [C15G C58U],0.482
2,GGCCGGCAUGGUCCGAGCCUCCUCCCUGGCGCCGGCUGGGCAACAUUCCGAGGGGACCGUCCCCUCGGUAAUGGCGAAUGGGACCCA [C15G G25C],0
3,GGCCGGCAUGGUCCGAGCCUCCUCUCUGGCGCCGGCUGGGCAACAUUCCGAGGGGACCGUCCCCUCGGUAAUGGCGAAUGGGACCCA [C15G G25U],0.0354
4,GGCCGGCAUGGUCCGAGCCUCCUCGCUGUCGCCGGCUGGGCAACAUUCCGAGGGGACCGUCCCCUCGGUAAUGGCGAAUGGGACCCA [C15G G29U],0
5,GGCCGGCAUGGUCCGACCCUCCUCGCUGGCGCCGGCUGGGCAACAUUCCGAGGGGACCGUCCCCUCGGUAAUGGCGAAUGGGACCCA [C15G G17C],0.0875
6,GGCCGGCAUGGUCCGAACCUCCUCGCUGGCGCCGGCUGGGCAACAUUCCGAGGGGACCGUCCCCUCGGUAAUGGCGAAUGGGACCCA [C15G G17A],0.133
7,GGCCGGCAUGGUCCGAGCUUCCUCGCUGGCGCCGGCUGGGCAACAUUCCGAGGGGACCGUCCCCUCGGUAAUGGCGAAUGGGACCCA [C15G C19U],0.0898
8,GGCCGGCAUGGUCCGAGCAUCCUCGCUGGCGCCGGCUGGGCAACAUUCCGAGGGGACCGUCCCCUCGGUAAUGGCGAAUGGGACCCA [C15G C19A],0.0831
9,GGCCGGCAUGGUCCGAGCCUCCUGGCUGGCGCCGGCUGGGCAACAUUCCGAGGGGACCGUCCCCUCGGUAAUGGCGAAUGGGACCCA [C15G C24G],0.196
10,GGCCGGCAUGGUCCGAGCCUCCUCGCUGGCGCCGGCUGGGCAACAUUCCAAGGGGACCGUCCCCUCGGUAAUGGCGAAUGGGACCCA [C15G G50A],0.723
11,GGCCGGCAUGGUCCGAGCCUCCUCGCUGGCGCCGGCUGGGCAACAUUCCGAGGGGACCGUCCCCUCGGUAAUGGCGAAUGGGACCAA [C15G C86A],0.712
12,GGCCGGCAUGGUCCGAGCCUCCUCGCUGGCGCCGGCUGGGCAACAUUCCGAGGGGACCGUUCCCUCGGUAAUGGCGAAUGGGACCCA [C15G C61U],0.434
13,GGCCGGCAUGGUCCGAGCCUCCUCGCUGGCGCCGGCUGGGCAACAUUCCGAGGGGACCGUGCCCUCGGUAAUGGCGAAUGGGACCCA [C15G C61G],0.178
14,GGCCGGCAUGGUCCGAGCCUCCUCGCUGGCGCGGGCUGGGCAACAUUCCGAGGGGACCGUCCCCUCGGUAAUGGCGAAUGGGACCCA [C15G C33G],0.0489
15,GGCCGGCAUGGUCCGAGCCUCCUCGCUGGCGCUGGCUGGGCAACAUUCCGAGGGGACCGUCCCCUCGGUAAUGGCGAAUGGGACCCA [C15G C33U],0.415
16,GGCCGGCAUGGUCCGAGCCUCCUCGCUGGCGCAGGCUGGGCAACAUUCCGAGGGGACCGUCCCCUCGGUAAUGGCGAAUGGGACCCA [C15G C33A],0.0405
17,GGCCGGCAUGGUCCGAGCCUCCUCGCUAGCGCCGGCUGGGCAACAUUCCGAGGGGACCGUCCCCUCGGUAAUGGCGAAUGGGACCCA [C15G G28A],0.0627
18,GGCCGGCAUGGUCCGAGCCUCCUCGCUGGCGCCGGCUGGGCAACAUUCAGAGGGGACCGUCCCCUCGGUAAUGGCGAAUGGGACCCA [C15G C49A],0.519
19,GGCCGGCAUGGUCCGAGCCUCCUCGCUGGCGCCGGCUGGGCAACAUUCGGAGGGGACCGUCCCCUCGGUAAUGGCGAAUGGGACCCA [C15G C49G],0.499
20,GGCCGGCAUGGUCCGAGCCUCCUCGCUGGCGCCGGCUGGGCAACAUUCCGAGGGGACCGUCCCCUCGGUAAUGGCGAAUGGGACCCG [C15G A87G],0.543

# Source: the RNAGym collection of RNA variant scans (doi:10.7554/elife.80360)
